The target in test [1] is T1, recombinant human IP-10 (human, UniProt P02778 22-98).
T1 construct: Bought from R&D Systems; also called CXCL10; rhIP-10
T1 sequence: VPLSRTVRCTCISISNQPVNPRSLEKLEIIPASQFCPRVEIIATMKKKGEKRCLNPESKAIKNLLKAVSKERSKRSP
The test can be described thus: competition ELISA on coated human IP-10; Exp. B. (In general: In an ELISA, binding on a coated surface is turned into a signal by an enzyme label.)

The target in test [2] is T1, recombinant human IP-10. The test can be described thus: competition ELISA on coated human IP-10; average.
In test [3] the target is T1, recombinant human IP-10. The experiment in a line: competition ELISA on coated human IP-10, competitor: biotinylated MuAIP12; Exp. C.
Test [4] addresses T1, recombinant human IP-10. The test can be described thus: competition ELISA on coated human IP-10, competitor: biotinylated MuAIP12; Exp. B.
The target in test [5] is T1, recombinant human IP-10. The test can be described thus: competition ELISA on coated human IP-10, competitor: biotinylated MuAIP12; Exp. A.
Test [6] addresses T1, recombinant human IP-10. The test can be described thus: competition ELISA on coated human IP-10; Exp. A.
Test [7] has as its target T1, recombinant human IP-10. The experiment in a line: competition ELISA on human IP-10, competitor: AIP13.
Test [8] concerns the target T1, recombinant human IP-10. The test can be described thus: competition ELISA on coated human IP-10; Exp. C.
Test [9] concerns the target T1, recombinant human IP-10. The experiment in a line: cell-based or functional assay.
In test [10] the target is T1, recombinant human IP-10. The test can be described thus: Biacore 2000 (SPR), antibody captured by goat anti-human IgG Fc, human IP-10 injected.
In test [11] the target is T1, recombinant human IP-10. The experiment in a line: competition ELISA on coated human IP-10, competitor: biotinylated MuAIP12; average.
Test [12] deals with T1, recombinant human IP-10. The experiment in a line: competition ELISA on coated human IP-10, competitor: biotinylated MuAIP12; Exp. D.
Test [13] has as its target T1, recombinant human IP-10. The experiment in a line: Biacore (SPR). (In SPR one partner is held on a chip, and binding of the other changes the refractive index at the surface.)
The target in test [14] is T1, recombinant human IP-10. The test can be described thus: Biacore (Table 3).
Test [15] addresses T1, recombinant human IP-10. The test can be described thus: competition ELISA on coated human IP-10; Exp. D.
Test [16] concerns the target T1, recombinant human IP-10. The test can be described thus: cell-based or functional assay. The source holds these as a separate data set.

1 molecule from patent EP1708961B1 (Abbott Biotherapeutics Corp., dated 2011) can be followed below.

Values joined by “and” are separate entries in the source; they are usually repeats but may differ in a detail not shown here. Identical values can stand only once.

The IC50 is the midpoint of a concentration-inhibition curve. Usually Kd stands for the constant that tells how readily two partners part at equilibrium. Usually koff stands for the first-order rate constant of dissociation. Usually kon stands for a measure of how fast the partners come together.

B1: humanized monoclonal antibody HuAIP12 (antibody, human IgG1, V domains shown)
VH: EVQLVQSGAEVKKPGATVKISCKVSGYTFTDYSMHWVRQAPGKGLKWMGWINTETGEPTYADDFKGRFTFTLDTSTSTAYMELSSLRSEDTAVYYCARNYDYDGYFDVWGQGTTVTVSS
VL: DIQMTQSPSSLSASVGDRVTITCKASQDINKYIAWYQQKPGKAPKLLIHYTSTLQPGIPSRFSGSGSGRDYTFTISSLQPEDIATYYCLQYDNLLFTFGQGTKLEIK
notes: Human IgG1/kappa; also called unmodified HuAIP12; Wild Type
Take B1: the “fold difference of IC50 against MuAIP12” value in the test with recombinant human IP-10 [1] is 2.4 fold; with recombinant human IP-10 [2], 2.5 fold; with recombinant human IP-10 [6] it was 2.9 fold; with recombinant human IP-10 [8], 2.2 fold; in the test with recombinant human IP-10 [15], 2.4 fold. Also, the half-inhibitory concentration (IC50) is 14.5 µg/mL in the test with recombinant human IP-10 [3]; 10.7 µg/mL in the test with recombinant human IP-10 [4]; 18.6 µg/mL with recombinant human IP-10 [5]; 3.1 µg/mL and 4.1 µg/mL in the test with recombinant human IP-10 [7]; 13.5 µg/mL with recombinant human IP-10 [11]; 10.3 µg/mL with recombinant human IP-10 [12]. In addition, in the test with recombinant human IP-10 [9], the “inhibition of chemotaxis (IC50%) on recombinant IP-10, donor 215” value amounted to 0.142 µg/mL. Further, the “inhibition of chemotaxis (IC50%) on recombinant IP-10, donor 318” value in the test with recombinant human IP-10 [9] was 0.038 µg/mL. The “inhibition of chemotaxis (IC50%) on recombinant IP-10, donor 1012” value with recombinant human IP-10 [9] was found to be 0.073 µg/mL. Further, the “inhibition of chemotaxis (IC50%) on recombinant IP-10, mean of donors” value in the test with recombinant human IP-10 [9] came to 0.086 µg/mL. Besides, the equilibrium dissociation constant (Kd) with recombinant human IP-10 [10] was 0.251 nM; with recombinant human IP-10 [13] it was 0.472 nM. For the same molecule, the figures for the off-rate (koff) in the test with recombinant human IP-10 [10] and with recombinant human IP-10 [13] were 0.000381 s⁻¹ and 0.000357 s⁻¹, respectively. The on-rate constant (kon) with recombinant human IP-10 [10] came out at 1.55e+06 M⁻¹ s⁻¹; in the test with recombinant human IP-10 [13] it was 755000 M⁻¹ s⁻¹. Further, in the test with recombinant human IP-10 [14], the “fold higher binding affinity than HuAIP13” value was about 2.6 fold. For the same molecule, the “IC50 of inhibition of IP-10 mediated chemotaxis” value with recombinant human IP-10 [16] is about 0.1 µg/mL.
